{"source": "paper PMC4401446", "test_in_all_cases": "SEC; protein at 500 ug/mL incubated 3 hours at 30°C, then Superdex 75 in 50 mM Tris-HCl pH 8.0, 150 mM NaCl, 5% (v/v) glycerol, calibrated with molecular mass standards; dimer to monomers", "key": {"[1]": {"target": "human triosephosphate isomerase N15D mutant (human)"}, "[2]": {"target": "human triosephosphate isomerase N15D/N71D double mutant (human)"}, "[3]": {"target": "human triosephosphate isomerase N71D mutant (human)"}}, "data": [{"substance": "human triosephosphate isomerase N15D mutant (enzyme)", "values": [{"measurement": "stoichiometry N", "setting": "[1]", "result": 2}]}, {"substance": "human triosephosphate isomerase N15D/N71D double mutant (enzyme)", "values": [{"measurement": "stoichiometry N", "setting": "[2]", "result": 2}]}, {"substance": "human triosephosphate isomerase N71D mutant (enzyme)", "values": [{"measurement": "stoichiometry N", "setting": "[3]", "result": 2}]}]}
